These results are taken from patent US20180222961A1 (IMMATICS BIOTECHNOLOGIES, published 2018).

The target in this assay is T1, HLA-B*07:02 (human).
T1 construct: also called peptide-receptive MHC molecules
Put plainly: UV-exchange b2m ELISA; exchange-yield grade. An excerpt:
Candidate peptides for T cell based therapies according to the present invention were further tested for their MHC binding capacity (affinity). The individual peptide-MHC complexes were produced by UV-ligand exchange, where a UV-sensitive peptide is cleaved upon UV-irradiation, and exchanged with the peptide of interest as analyzed. Only peptide candidates that can effectively bind and stabilize the peptide-receptive MHC molecules prevent dissociation of the MHC complexes. To determine the yield of the exchange reaction, an ELISA was performed based on the detection of the light chain (β2m) of stabilized MHC complexes. The assay was performed as generally described in Rodenko et al. (Rodenko et al., 2006).
96 well MAXISorp plates (NUNC) were coated over night with 2 ug/ml streptavidin in PBS at room temperature, washed 4× and blocked for 1 h at 37° C. in 2% BSA containing blocking buffer. Refolded HLA-A*02:01/MLA-001 monomers served as standards, covering the range of 15-500 ng/ml. Peptide-MHC monomers of the UV-exchange reaction were diluted 100-fold in blocking buffer. Samples were incubated for 1 h at 37° C., washed four times, incubated with 2 ug/ml HRP conjugated anti-β2m for 1 h at 37° C., washed again and detected with TMB solution that is stopped with […]. Absorption was measured at 450 nm. Candidate peptides that show a high exchange yield (preferably higher than 50%, most preferred higher than 75%) are generally preferred for a generation and production of antibodies or fragments thereof, and/or T cell receptors or fragments thereof, as they show sufficient avidity to the MHC molecules and prevent dissociation of the MHC complexes.
For orientation: In an ELISA, binding on a coated surface is turned into a signal by an enzyme label.

As to SPNKGTLSV, the peptide exchange yield was in the range of 50 to 75%.

APVIFSHSA displayed a peptide exchange yield of 20 to 50%.

The molecule YPLRGSSI had a peptide exchange yield of 20 to 50%.

Molecule RVRSTISSL showed a peptide exchange yield of 50 to 75%.

Regarding RPLFYVVSL, the peptide exchange yield was in the range of 20 to 50%.

RPAPFEVVF gave a peptide exchange yield of 50 to 75%.

APRPASSL: the peptide exchange yield fell in the range of 50 to 75%.

YPGFPQSQY came in with a peptide exchange yield of 20 to 50%.

As for FPRLVGPDF, the peptide exchange yield was 50 to 75%.

Molecule RPAMNYDKL registered a peptide exchange yield of 20 to 50%.

SPQSMSNTL registered a peptide exchange yield of 50 to 75%.

IPGPAQSTI showed a peptide exchange yield of 20 to 50%.

In turn, RPIVPGPLL yielded a peptide exchange yield of 50 to 75%.

YPLRGSSIF had a peptide exchange yield of 50 to 75%.

The molecule LPRPGAVL came in with a peptide exchange yield of 50 to 75%.

On to FPDNQRPAL, for which the peptide exchange yield fell in the range of 50 to 75%.

The molecule SPFSAEEANSL registered a peptide exchange yield of 50 to 75%.

Molecule KPGPEDKL displayed a peptide exchange yield of 20 to 50%.

As for APRWFPQPTVV, the peptide exchange yield lay in the range of 50 to 75%.

Molecule YPRTITPGM had a peptide exchange yield of 50 to 75%.

Take YPLRGSSIFGL: the peptide exchange yield fell in the range of 50 to 75%.

MPNLPSTTSL: the peptide exchange yield lay within 50 to 75%.

The molecule KPGTSYRVTL gave a peptide exchange yield of 50 to 75%.

TPWAESSTKF showed a peptide exchange yield of 20 to 50%.

In the case of APAAWLRSA, the peptide exchange yield lay in the range of 20 to 50%.

With VPNQSSESL, the peptide exchange yield is 50 to 75%.

Consider APTEDLKAL, for which the peptide exchange yield lay in the range of 50 to 75%.

As to SPASRSISL, the peptide exchange yield lay within 50 to 75%.

With SPRRSPRISF, the peptide exchange yield lay within 20 to 50%.

Molecule SPMTSLLTSGL yielded a peptide exchange yield of 50 to 75%.

IPMAAVKQAL had a peptide exchange yield of 50 to 75%.

The molecule RVEEVRALL had a peptide exchange yield of 50 to 75%.

Consider APLPRPGAVL, for which the peptide exchange yield lay in the range of 50 to 75%.

Turning to RVRSRISNL, the peptide exchange yield lay in the range of 50 to 75%.

Regarding SPAMTSTSF, the peptide exchange yield lay within 20 to 50%.

With KPSESIYSAL, the peptide exchange yield was in the range of 50 to 75%.

Molecule VPVYILLDEM displayed a peptide exchange yield of 20 to 50%.

VPDSGATATAY yielded a peptide exchange yield of 20 to 50%.

Turning to RPLFQKSSM, the peptide exchange yield fell in the range of 50 to 75%.

Consider SPRTEASSAVL, for which the peptide exchange yield lay in the range of 50 to 75%.

IPRPEVQAL had a peptide exchange yield of 50 to 75%.

Molecule SPTFHLTL had a peptide exchange yield of 50 to 75%.

LPSDSHFKITF returned a peptide exchange yield of 50 to 75%.

Molecule SPSSPMSTF yielded a peptide exchange yield of 20 to 50%.

With FPQSQYPQY, the peptide exchange yield lay in the range of 50 to 75%.

Turning to LPRGPLASLL, the peptide exchange yield fell in the range of 50 to 75%.

The molecule YPEGAAYEF displayed a peptide exchange yield of 20 to 50%.

KPYGGSGPL: the peptide exchange yield lay in the range of 50 to 75%.

GPREALSRL: the peptide exchange yield lay in the range of 50 to 75%.

Consider SPHPVTALLTL, for which the peptide exchange yield lay within 50 to 75%.

The molecule SPSPVSSTL displayed a peptide exchange yield of 50 to 75%.

The molecule SPSPVTSTL gave a peptide exchange yield of 50 to 75%.

As to YPTEHVQF, the peptide exchange yield fell in the range of 20 to 50%.

Molecule APRAGSQVV displayed a peptide exchange yield of 50 to 75%.

The molecule SPGATSRGTL had a peptide exchange yield of 50 to 75%.

On to TPGLRETSI, for which the peptide exchange yield fell in the range of 20 to 50%.

For the molecule LPMWKVTAF, the peptide exchange yield fell in the range of 50 to 75%.

With SPMATTSTL, the peptide exchange yield fell in the range of 50 to 75%.

The molecule TVREASGLL registered a peptide exchange yield of 50 to 75%.

For the molecule LPYGPGSEAAAF, the peptide exchange yield is 50 to 75%.

Molecule HPGSSALHY showed a peptide exchange yield of 20 to 50%.
